Molecular target: T1, CsrA (UniProt P69913 1-61)
Assay: EMSA; 6 uM CsrA; 10 nM denatured RNA, 0-6 uM CsrA, 0-3 uM Hfq; 1X binding buffer (10 mM Tris-HCl pH 7.5, 10 mM MgCl2, 100 mM KCl) plus CsrA dilution buffer, 11% glycerol, 20 mM
Conditions: protein: recombinant; chain copies: 2; label: internal 32P-UTP

T1 sequence (P69913 whole entry): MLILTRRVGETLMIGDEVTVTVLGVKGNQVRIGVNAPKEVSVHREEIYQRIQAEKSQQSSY

Binder	binding result
SibD (structured_RNA) RNA: ACAAGGGUGAGGGAGGAUUUCUCCCCCCUCUGAUUGGCUGUUAAUAAGCUGCGAAACUUACGAGUAACAACACAAUCAGUAUGAUGACGAGCUUCAUCAUAACCCUUUCCUUCUGUAAGGCCCCCUUCUUCGGGAGGGGCUUU	binds
GlmZ (structured_RNA) RNA: GUAGAUGCUCAUUCCAUCUCUUAUGUUCGCCUUAGUGCCUCAUAAACUCCGGAAUGACGCAGAGCCGUUUACGGUGCUUAUCGUCCACUGACAGAUGUCGCUUAUGCCUCAUCAGACACCAUGGACACAACGUUGAGUGAAGCACCCACUUGUUGUCAUACAGACCUGUUUUAACGCCUGCUCCGUAAUAAGAGCAGGCGUUUUUUU	binds
MicL-S (structured_RNA) RNA: AUUUUUACCGUUGCAUCAUGUCGCCCAAUAUGAUGCUUGCUCGUACCAGGCCCCUGCAAUUUCAACAGGGGCCUUUUUUU	binds

Molecular target: T1, CsrA
Assay: EMSA; 3 or 6 uM CsrA; 10 nM denatured RNA, 0-6 uM CsrA, 0-3 uM Hfq; 1X binding buffer (10 mM Tris-HCl pH 7.5, 10 mM MgCl2, 100 mM KCl) plus CsrA dilution buffer, 11% glycerol, 20 mM
Conditions: protein: recombinant; chain copies: 2; label: internal 32P-UTP

Binder	binding result
SgrS (structured_RNA) RNA: GAUGAAGCAAGGGGGUGCCCCAUGCGUCAGUUUUAUCAGCACUAUUUUACCGCGACAGCGAAGUUGUGCUGGUUGCGUUGGUUAAGCGUCCCACAACGAUUAACCAUGCUUGAAGGACUGAUGCAGUGGGAUGACCGCAAUUCUGAAAGUUGACUUGCCUGCAUCAUGUGUGACUGAGUAUUGGUGUAAAAUCACCCGCCAGCAGAUUAUACCUGCUGGUUUUUUUU	binds
McaS (structured_RNA) RNA: ACCGGCGCAGAGGAGACAAUGCCGGAUUUAAGACGCGGAUGCACUGCUGUGUGUACUGUAGAGUCUGGCGGAUGUCGACAGACUCUAUUUUUU	binds
ChiX (structured_RNA) RNA: ACACCGUCGCUUAAAGUGACGGCAUAAUAAUAAAAAAAUGAAAUUCCUCUUUGACGGGCCAAUAGCGAUAUUGGCCAUUUUUUU	binds
SibA (structured_RNA) RNA: GUGAGGGUUAGGGAGAGGUUUCCCCCUCCCCCUGGUGUUCUUAGUAAGCCUGGAAGCUAAUCACUAAGAGUAUCACCAGUAUGAUGACGUGCUUCAUCAUAACCCUUUCCUUAUUAAAAGCCCUCUUCUCCGGGAGAGGCUUU	binds
DsrA (structured_RNA) RNA: AACACAUCAGAUUUCCUGGUGUAACGAAUUUUUUAAGUGCUUCUUGCUUAAGCAAGUUUCAUCCCGACCCCCUCAGGGUCGGGAUUU	binds
GadY (structured_RNA) RNA: ACUGAGAGCACAAAGUUUCCCGUGCCAACAGGGAGUGUUAUAACGGUUUAUUAGUCUGGAGACGGCAGACUAUCCUCUUCCCGGUCCCCUAUGCCGGGUUUUUUU	binds

Same assay, conditions: protein: recombinant; chain copies: 2; label: internal 32P-UTP (EMSA)

Binder	binding result
Spot 42 (spf) (structured_RNA) RNA: GUAGGGUACAGAGGUAAGAUGUUCUAUCUUUCAGACCUUUUACUUCACGUAAUCGGAUUUGGCUGAAUAUUUUAGCCGCCCCAGUCAGUAAUGACUGGGGCGUUUUUUA	binds

Molecular target: T1, CsrA
Assay: EMSA; up to 6 uM CsrA; 10 nM denatured RNA, 0-6 uM CsrA, 0-3 uM Hfq; 1X binding buffer (10 mM Tris-HCl pH 7.5, 10 mM MgCl2, 100 mM KCl) plus CsrA dilution buffer, 11% glycerol, 20 mM
Conditions: protein: recombinant; chain copies: 2; label: internal 32P-UTP

Binder	binding result
GcvB (structured_RNA) RNA: ACUUCCUGAGCCGGAACGAAAAGUUUUAUCGGAAUGCGUGUUCUGGUGAACUUUUGGCUUACGGUUGUGAUGUUGUGUUGUUGUGUUUGCAAUUGGUCUGCGAUUCAGACCAUGGUAGCAAAGCUACCUUUUUUCACUUCCUGUACAUUUACCCUGUCUGUCCAUAGUGAUUAAUGUAGCACCGCCUAAUUGCGGUGCUUUUUUUU	no binding
SibC (structured_RNA) RNA: GUAAGGGUAAGGGAGGAUUGCUCCUCCCCUGAGACUGACUGUUAAUAAGCGCUGAAACUUAUGAGUAACAGUACAAUCAGUAUGAUGACAAGUCGCAUCAUAACCCUUCUCCUUCAAGCCCUCGCUUCGGUGAGGGCUUU	no binding

— publication PMC10729762, “CsrA selectively modulates sRNA-mRNA regulator outcomes”
